Laboratory results from paper PMC3379838.

Assays:
purified protein [1] = substrate: CC1CS(=O)(=O)CCN1/N=C/c1ccc([N+](=O)[O-])o1; assay: purified protein; format: biochemical, Trypanosoma cruzi; conditions: 100 μM NADH fixed
purified protein [2] = substrate: O=C(Cn1ccnc1[N+](=O)[O-])NCc1ccccc1; assay: purified protein; format: biochemical, Trypanosoma cruzi; conditions: 100 μM NADH fixed; benznidazole 10–100 μM

B1: TcNTR (61S, catalytic domain) (Trypanosoma cruzi strain CL Brener) (protein)
chain: LDAMKRVVHERRSCKRFDPTKSIDLDVVSDLLAMTVRAPTALNLQPWVAVVIHEEEQRETLSRAALGQPQPRDAPVTVVFAGDMEPESNAPAALEMGLESGYYHSLYGAAYLRHAYYLLHGGPCEVMSHVKAIVSAWYSESTGNAMLSVPRNKQAYAWKQVMIPATTFLYLATAAGFDTAILEGFDEAQVRRVAGLPPRFTVPVIISVGHGAKNGFHSVRSPRFPTKHLVRWGKF
With B1 the Km (purified protein [1]) was 15.5 ± 3.5 µM and the Km (purified protein [2]) was 28.0 ± 2.7 µM.
